Laboratory results taken from the Human Domainome abundance scans (Beltran et al. 2025).

B1: Tyrosine-protein kinase BTK, residues 215 to 273; numbered along this chain, Q06187 (parent)
chain: ELKKVVALYDYMPMNANDLQLRKGDEYFILEESNLPWWRARDKNGQEGYIPSNYVTEAE

Variants of: B1
Assay: abundance fitness (aPCA) (normalised: wild type 0, dead -1); higher = more abundant; growth selection in yeast, the domain comes from the species named
Conditions: Homo sapiens

Abundance fitness, by site and new letter:
S33: A 0.026; E -0.038; V -0.054; K 0.009; T 0.005; Q 0.016; G -0.019; Y -0.065; F -0.015; P 0.006; H -0.087; M -0.02; W -0.072; L -0.06; D -0.088; C -0.039; R -0.07
E31: N -0.058; L -0.122; A -0.008; F -0.005; P -0.162; R -0.028; T -0.04; M 0.026; V -0.119; W -0.105; S 0.05; H -0.054; D -0.058; Q 0.072; G -0.051; C -0.034; I -0.117
E26: G -0.191; A -0.075; C -0.084; Y -0.082; K -0.01; S 0; Q -0.079; T 0.011; F -0.024; R -0.068; W -0.037; N -0.098; H -0.134; V -0.032; L -0.01; P -0.041; I -0.013; D -0.061
L35: S -0.041; E -0.022; N -0.06; Q -0.012; M -0.028; W -0.015; C -0.082; R -0.006; F 0.012; D 0.05; K -0.039; I 0.005; H -0.002; P 0; A -0.08; V -0.017
D25: M -0.005; S -0.071; L -0.061; F -0.107; P -1.15; Q -0.013; R -0.068; Y -0.101; K -0.067; G -0.073; A -0.046; N -0.074; E 0.019; H -0.01
E32: H -0.114; V 0.014; N -0.055; M -0.082; R -0.038; K -0.133; A 0.016; Y -0.083; T -0.013; I -0.202; P -0.007; W -0.09; S -0.018; Q 0.028; F -0.173
P36: S -0.013; W -0.17; A 0.012; I -0.294; F -0.437; E -0.024; V -0.077; R -0.029; K 0.011; C -0.072; D -0.013; L -0.094; Y -0.148; G -0.089; N -0.075; Q 0.002; T -0.1
L30: W -0.147; M -0.087; A -0.12; Q -0.159; I -0.026; K -0.076; T -0.03; S -0.175; E -0.104; R -0.223; C -0.207; V -0.015; N -0.346; G -0.398; F -0.038; Y -0.056; D -0.397; P -0.365
A40: W -1.02; T -0.456; G -0.047; H -0.674; Q -0.758; R -0.825; N -0.981; Y -0.734; V -0.047; P -1.16; C -0.121; M -0.334; K -1.07; S -0.298; F -0.892; L -0.181; I -0.266; E -0.965; D -0.952
D42: L -0.81; T -0.065; H -0.321; P -0.936; S -0.07; M -0.498; E -0.23; I -0.995; A 0.017; K -0.575; R -0.673; C -0.119; G -0.103; N -0.081; F -0.843
N34: A 0.026; D 0.073; P 0.031; L 0.033; H -0.066; Y -0.102; E 0.037; T 0.029; R -0.002; Q 0.118; M 0.014; S 0.033; W -0.032; V 0.065; G 0.07; C 0.046
F28: V -0.009; T -0.02; L -0.004; C -0.096; W 0.032; G -0.049; I -0.021; S -0.019; Y -0.068; D -0.018; Q -0.069; H -0.07; K -0.141; M 0.017; A -0.055; R -0.012; N -0.077; E 0.002; P -0.631
R39: V -0.065; T -0.111; G -0.36; L -0.062; F -0.069; K -0.064; C -0.181; S -0.089; W -0.042; A -0.179; Y -0.171; Q -0.031; P -0.187; H -0.116; E -0.199
I29: Y -1.02; D -0.704; N -0.698; R -0.436; F -0.799; Q -0.624; L -0.008; G -0.847; M -0.229; A -0.194; S -0.544; T -0.212; K -0.241; E -0.58; H -0.99; P -0.483; W -0.855; V -0.002
K23: Q -0.077; D -0.522; H -0.019; I -0.207; G -0.143; V -0.072; C -0.037; M -0.169; E -0.058; P -0.371; T -0.112; W -0.372; R -0.056; L -0.181
W37: E 0.011; M 0.006; P -0.227; C 0.029; H 0.014; V 0.013; K 0.027; Y -0.018; F -0.011; I -0.097; Q 0.021; T 0.036; L -0.014; D -0.129; A -0.03; G -0.134; S -0.017
G24: N -0.096; E -0.276; Y -0.193; K -0.302; H -0.178; D -0.09; F -0.156; L -0.382; C -0.472; V -0.987; P -0.748; Q -0.302; S -0.226; W -0.34; I -0.799; T -0.395; M -0.223; A -0.252
Y27: N -0.537; F -0.157; W -0.96; M -0.362; T -0.698; G -0.745; A -0.339; E -0.646; P -0.624; L -0.053; I -0.054; V -0.022; S -0.69; K -0.771; H -0.754; R -0.772; D -0.692; C -0.299
R41: V -0.132; W -0.19; I -0.158; Q -0.006; P -0.976; L -0.072; N -0.674; G -0.317; C -0.027; A -0.111; D -1.08; F -0.142; Y -0.234; T -0.097; E -0.305; M -0.003; S -0.108
W38: C -0.027; F -0.031; K -0.008; L -0.005; N -0.098; G -0.22; A -0.017; S 0.042; T -0.009; Y 0.044; Q -0.019; H -0.029; M 0.017; V 0.022; P -0.038; D -0.157
